T1: human CD73 expressed at the cell surface (human, UniProt P21589 27-549)
T1 sequence: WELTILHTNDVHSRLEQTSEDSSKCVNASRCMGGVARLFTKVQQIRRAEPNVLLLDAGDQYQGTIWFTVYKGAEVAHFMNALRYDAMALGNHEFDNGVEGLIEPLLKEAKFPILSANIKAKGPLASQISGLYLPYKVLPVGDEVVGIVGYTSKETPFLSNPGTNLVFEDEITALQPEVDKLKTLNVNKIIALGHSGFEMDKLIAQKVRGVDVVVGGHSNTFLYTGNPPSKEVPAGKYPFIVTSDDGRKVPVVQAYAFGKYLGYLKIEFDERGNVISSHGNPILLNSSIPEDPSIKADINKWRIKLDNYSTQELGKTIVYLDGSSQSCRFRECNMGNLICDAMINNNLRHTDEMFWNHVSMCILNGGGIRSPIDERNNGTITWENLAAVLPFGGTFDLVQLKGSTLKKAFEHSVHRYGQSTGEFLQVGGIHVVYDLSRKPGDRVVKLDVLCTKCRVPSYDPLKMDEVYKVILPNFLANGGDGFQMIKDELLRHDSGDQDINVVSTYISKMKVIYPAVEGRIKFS

T2: recombinant human CD73-His extracellular domain protein (soluble dimer) (human, UniProt P21589 27-547)
T2 sequence: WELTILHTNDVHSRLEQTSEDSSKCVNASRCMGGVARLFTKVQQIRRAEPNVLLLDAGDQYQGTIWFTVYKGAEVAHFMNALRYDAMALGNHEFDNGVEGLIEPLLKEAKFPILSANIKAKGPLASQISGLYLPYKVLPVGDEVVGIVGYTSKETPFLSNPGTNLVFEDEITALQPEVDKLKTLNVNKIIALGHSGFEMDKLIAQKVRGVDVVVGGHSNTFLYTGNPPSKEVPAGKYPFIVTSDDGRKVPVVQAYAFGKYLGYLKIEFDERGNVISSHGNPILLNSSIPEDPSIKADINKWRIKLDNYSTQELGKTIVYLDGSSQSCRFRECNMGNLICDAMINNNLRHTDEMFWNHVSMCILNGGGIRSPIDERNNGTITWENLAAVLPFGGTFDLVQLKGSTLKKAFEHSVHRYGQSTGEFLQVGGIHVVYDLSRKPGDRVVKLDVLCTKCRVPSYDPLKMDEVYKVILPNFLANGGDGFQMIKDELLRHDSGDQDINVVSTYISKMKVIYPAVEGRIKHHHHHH

T3: human CD73 mutant 3 (human, UniProt P21589 27-549)
T3 construct: Expressed on transfected HEK293T cells
T3 chain: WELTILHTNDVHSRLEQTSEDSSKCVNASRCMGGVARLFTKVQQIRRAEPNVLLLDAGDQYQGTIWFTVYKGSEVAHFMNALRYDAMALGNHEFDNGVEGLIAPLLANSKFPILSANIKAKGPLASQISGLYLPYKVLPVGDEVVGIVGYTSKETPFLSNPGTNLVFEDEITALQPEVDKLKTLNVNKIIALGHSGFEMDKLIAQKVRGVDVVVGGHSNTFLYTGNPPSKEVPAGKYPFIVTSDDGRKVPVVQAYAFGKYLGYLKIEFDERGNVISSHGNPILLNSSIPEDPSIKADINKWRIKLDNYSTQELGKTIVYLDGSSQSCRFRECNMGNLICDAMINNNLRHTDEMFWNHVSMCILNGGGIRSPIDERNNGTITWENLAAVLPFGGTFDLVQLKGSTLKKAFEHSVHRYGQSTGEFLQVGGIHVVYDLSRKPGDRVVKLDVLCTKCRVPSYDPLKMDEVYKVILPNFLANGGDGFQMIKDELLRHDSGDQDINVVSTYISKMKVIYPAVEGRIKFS


What was measured:
[1] = target: T1, human CD73 expressed at the cell surface; assay: cell-based or functional assay
[2] = target: T1, human CD73 expressed at the cell surface; assay: flow cytometry titration on human CD73-expressing recombinant host cells, PE secondary, median of fluorescence
Method: MDA-MB-231 cells are available from ATCC (reference HTB-26). 10⁵ cells resuspended in PBS/0.2% BSA/0.02% NaN3 (named “staining buffer”) are distributed into round bottom 96W-microplates. Dose-range of anti-CD73 antibodies was added to the plates and cells are incubated for 45 min at 4° C. Cells were washed three times in staining buffer by spinning plates at 400 g for 3 min at 4° C. PE-coupled goat anti-mouse or goat anti-human IgG Fc fragment secondary antibodies (Beckman Coulter) diluted in staining buffer were added to the cells and plates are incubated for 30 additional minutes at 4° C. Cells were washed three times as described above and analyzed on an Accury C6 flow cytometer equipped with an HTFC plate reader.
Median of fluorescence vs. antibodies concentration was plotted on graphs and EC50 is calculated using GraphPad Prism program.

[3] = target: T1, human CD73 expressed at the cell surface; assay: cell-based or functional assay; remark: listed apart in the source
[4] = target: T4, cynomolgus CD73 expressed on recombinant host cells (cynomolgus); assay: flow cytometry titration on cynomolgus CD73-expressing recombinant host cells, PE secondary, median of fluorescence
T4 construct: whole, on cells; also called cynoCD73

[5] = target: T2, recombinant human CD73-His …; assay: cell-based or functional assay
human CD73 mutant 3 = target: T3, human CD73 mutant 3; assay: flow cytometry on transfected HEK293T cells
Method: CD73 mutants are generated by PCR. The sequences amplified are run on agarose gel and purified using the Macherey Nagel PCR Clean-Up Gel Extraction kit (reference 740609). The purified PCR products generated for each mutant are then ligated into an expression vector, with the ClonTech InFusion system. The vectors containing the mutated sequences are prepared as Miniprep and sequenced. After sequencing, the vectors containing the mutated sequences are prepared as Midiprep using the Promega PureYield™ Plasmid Midiprep System. HEK293T cells are grown in DMEM medium (Invitrogen), transfected with vectors using Invitrogen's Lipofectamine 2000 and incubated at 37° C. in a CO2 incubator for 24 hours prior to testing for transgene expression
Anti-CD73 antibodies are tested for their binding to each mutant by flow cytometry. A first experiment is performed to determine antibodies that lose their binding to one or several mutants at one concentration. To confirm a loss of binding, titration of antibodies is done on antibodies for which binding seemed to be affected by the CD73 mutations (1-0.1-0.01-0.001 μg/ml). Antibodies 11E1, 8C7, 3C12 or 6E1 lost binding to mutant 3 of CD73, but not to any other mutant. […] Antibody 7G2 lost binding to mutants 5, 6 and 7 (but not mutants 2 or 3).

Binder	EC50 for neutralization of cellular CD73 enzymatic activity (mean over MDA-MB-231, H292, A375) [1] [µg/mL]	EC70 for neutralization of cellular CD73 enzymatic activity (mean over MDA-MB-231, H292, A375) [1] [µg/mL]	EC100 for neutralization of cellular CD73 enzymatic activity (mean over MDA-MB-231, H292, A375) [1] [µg/mL]	EC50 (read off the curve) [2] [µg/mL]	EC50 for neutralization of enzymatic activity of cellular CD73 (MDA-MB-231, free phosphate from AMP) [3] [µg/mL]	EC50 (read off the curve) [4] [µg/mL]	EC50 for CD73 blockade (enzymatic activity of soluble recombinant CD73-his, Cell Titer Glo) [5] [µg/mL]	binding result (human CD73 mutant 3)
antibody 11E1 (antibody, human IgG1, V domains shown, also called 1E11) VH: EIQLQQSGPELVKPGASVKVSCKASGYAFTSYNMYWVKQSHGKSLEWIGYIDPYNGGTSYNQKFKGKATLTVDKSSSTAYMHLNSLTSEDSAVYYCARGYGNYKAWFAYWGQGTLVTVSA VL: DAVMTQTPKFLLVSAGDRVTITCKASQSVTNDVAWYQQKPGQSPKLLIYYASNRYTGVPDRFTGSGYGTDFTFTISTVQAEDLAVYFCQQDYSSLTFGAGTKLELK	0.1	0.15	0.52	~0.5	0.195	~0.5	0.41	–
antibody 6E1 (antibody, human IgG1, V domains shown) VH: EFQLQQSGPELVKPGASVKVSCKASGYAFTSYNMYWVKQSHGKRLEWIGYIDPYNGGSSYNQKFKGKATLTVDKSSSTAYMHLNNLTSEDSAVYYCARGYNNYKAWFAYWGQGTLVTVSA VL: SIVMTQTPKFLLVSAGDRVTITCKASQSVTNDVAWYQQKPGQSPKLLIYYASNRYTGVPDRFTGSGYGTDFTFTISTMQAEDLAVYFCQQDYSSLTFGAGTKLELK	0.13	0.19	0.68	~0.5	0.209	–	0.33	–
antibody 8C7 (antibody, human IgG1, V domains shown) VH: EVQLQQSGPELVKPGASVKVSCKASGYAFASYNMNWVKQSHGKSLDWIGYIDPYNGGSSYNLTFKGKATLTVDKSSTTAYMHLNSLTSEDSAVYYCARGYGNYKAWFAYWGQGTLVTVSA VL: SIVMTPTPKFLLVSAGDRVTITCKASQSVSNDVAWYQQKPGQSPKLLIYYASTRYTGVPDRFTGSGYGTDFTFTISTVQAEDLAVYFCQQDYSSLTFGAGTKLELKR	0.21	0.46	0.72	–	0.319	–	1.29	no binding (tested: 1-0.1-0.01-0.001 µg/ml)
antibody 3C12 (antibody, human IgG1, V domains shown) VH: QIQLQQSGPELVKPGASVKVSCKASGYAFASYNMNWVKQSHGKSLDWIGYIDPYNGGSSYNLTFKGKATLTVDKSSTTAYMHLNSLTSEDSAVYYCARGYGNYKAWFAYWGQGTLVTVSA VL: DVVMTQTPKFLLVSAGDRVTITCKASQSVSNDVAWYQQKPGQSPKLLIYYASTRYTGVPDRFTGSGYGTDFTFTISTVQAEDLAVYFCQQDYSSLTFGAGTKLELKR	0.14	0.18	0.3	–	0.21	–	0.41	–

From patent US20180237536A1 (INNATE PHARMA, published 2018)
